According to the supplement of paper PMC9112550, “Optimization of the antimicrobial peptide Bac7 by deep mutational scanning” (BMC Biology, 2022):

Tested on: Escherichia coli TOP10
Test: shrunken log2 fold change of peptide-encoding DNA abundance (4.5 h post-induction vs induction); higher = less antimicrobial activity (less host growth inhibition)
Details: time post-induction: 4.5 h; library: site-saturation at positions 5, 18, 19, 20
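Note: peptides expressed intracellularly from a pBAD plasmid library in pooled LB shake-flask culture, induced with 0.3% L-arabinose, DNA abundance read by NGS, three biological replicates, DESeq2 with apeglm shrinkage.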

Row | Sequence | shrunken log2 fold change
1 | RRIRNRPPRLPRPRPRPKMNPRP | -0.381
2 | RRIRVRPPRLPRPRPRPIHTPRP | -0.305
3 | RRIRNRPPRLPRPRPRPIIFPRP | -1.03
4 | RRIRKRPPRLPRPRPRPRACPRP | 0.474
5 | RRIRWRPPRLPRPRPRPHKAPRP | -0.000946
6 | RRIRERPPRLPRPRPRPKKLPRP | -0.083
7 | RRIRVRPPRLPRPRPRPKEWPRP | 0.146
8 | RRIRRRPPRLPRPRPRPWPAPRP | 0.448
9 | RRIRPRPPRLPRPRPRPGIFPRP | 0.0736
10 | RRIRFRPPRLPRPRPRPEDNPRP | -0.00777
11 | RRIRDRPPRLPRPRPRPGTGPRP | 0.304
12 | RRIRWRPPRLPRPRPRPTAGPRP | 0.965
13 | RRIRHRPPRLPRPRPRPWLPPRP | -0.0823
14 | RRIRMRPPRLPRPRPRPPPDPRP | 1.9
15 | RRIRVRPPRLPRPRPRPKGRPRP | 0.211
16 | RRIRERPPRLPRPRPRPVRWPRP | 0.635
17 | RRIRCRPPRLPRPRPRPKMAPRP | 0.0796
18 | RRIRLRPPRLPRPRPRPRCDPRP | -0.0342
19 | RRIRNRPPRLPRPRPRPRNDPRP | -0.304
20 | RRIRFRPPRLPRPRPRPLFEPRP | -0.0359
21 | RRIRLRPPRLPRPRPRPTVMPRP | 0.105
22 | RRIRVRPPRLPRPRPRPVFVPRP | -0.0229
23 | RRIRARPPRLPRPRPRPSYEPRP | -0.069
24 | RRIRYRPPRLPRPRPRPQFHPRP | -1.09
25 | RRIRQRPPRLPRPRPRPFDAPRP | -0.0632

Row | Sequence | shrunken log2 fold change
26 | RRIRRRPPRLPRPRPRPGMIPRP | -0.00969
27 | RRIRHRPPRLPRPRPRPMMDPRP | -0.214
28 | RRIRFRPPRLPRPRPRPPLLPRP | -0.0704
29 | RRIRVRPPRLPRPRPRPVQGPRP | 0.0692
30 | RRIRDRPPRLPRPRPRPNAHPRP | -0.0544
31 | RRIRNRPPRLPRPRPRPHFAPRP | 0.0588
32 | RRIRSRPPRLPRPRPRPAFMPRP | 0.309
33 | RRIRLRPPRLPRPRPRPQLHPRP | -0.123
34 | RRIRWRPPRLPRPRPRPQDHPRP | 0.178
35 | RRIRDRPPRLPRPRPRPVQYPRP | -0.0992
36 | RRIRNRPPRLPRPRPRPVIIPRP | -0.0963
37 | RRIRYRPPRLPRPRPRPNGIPRP | -0.02
38 | RRIRNRPPRLPRPRPRPISEPRP | 0.00895
39 | RRIRYRPPRLPRPRPRPHDQPRP | -0.188
40 | RRIRWRPPRLPRPRPRPHNSPRP | -0.394
41 | RRIRPRPPRLPRPRPRPHNGPRP | -0.0321
42 | RRIRNRPPRLPRPRPRPGTPPRP | 0.608
43 | RRIRDRPPRLPRPRPRPIPVPRP | -0.00774
44 | RRIRRRPPRLPRPRPRPHNMPRP | -0.697
45 | RRIRQRPPRLPRPRPRPAYHPRP | -0.826
46 | RRIRIRPPRLPRPRPRPPSKPRP | 0.147
47 | RRIRIRPPRLPRPRPRPMDPPRP | -0.347
48 | RRIRLRPPRLPRPRPRPRSVPRP | -0.0722
49 | RRIRGRPPRLPRPRPRPGDRPRP | 1
50 | RRIRIRPPRLPRPRPRPLEGPRP | -0.0524

Row | Sequence | shrunken log2 fold change
51 | RRIRRRPPRLPRPRPRPEQFPRP | 0.212
52 | RRIRDRPPRLPRPRPRPIFCPRP | -0.0484
53 | RRIRQRPPRLPRPRPRPCPGPRP | -0.0035
54 | RRIRMRPPRLPRPRPRPYGYPRP | 0.0362
55 | RRIRQRPPRLPRPRPRPPWAPRP | 0.577
56 | RRIRLRPPRLPRPRPRPNQAPRP | -0.0446
57 | RRIRPRPPRLPRPRPRPYWVPRP | -0.284
58 | RRIRYRPPRLPRPRPRPLHVPRP | -0.21
59 | RRIRRRPPRLPRPRPRPVYIPRP | -0.535
60 | RRIRTRPPRLPRPRPRPVHWPRP | 0.842
61 | RRIRPRPPRLPRPRPRPIVAPRP | 0.133
62 | RRIRWRPPRLPRPRPRPDGMPRP | 0.0134
63 | RRIRSRPPRLPRPRPRPQRGPRP | 0.274
64 | RRIRGRPPRLPRPRPRPRVIPRP | 0.227
65 | RRIRMRPPRLPRPRPRPDSCPRP | -0.00101
66 | RRIRDRPPRLPRPRPRPSLKPRP | 0.155
67 | RRIRARPPRLPRPRPRPTLKPRP | 0.605
68 | RRIRHRPPRLPRPRPRPAYRPRP | -0.00502
69 | RRIRARPPRLPRPRPRPQMWPRP | 0.102
70 | RRIRHRPPRLPRPRPRPAATPRP | 0.292
71 | RRIRGRPPRLPRPRPRPFAEPRP | 2.46
72 | RRIRLRPPRLPRPRPRPFNQPRP | -0.122
73 | RRIRSRPPRLPRPRPRPKFIPRP | -0.482
74 | RRIRARPPRLPRPRPRPHCCPRP | 0.134
75 | RRIRSRPPRLPRPRPRPFWHPRP | -0.0146

Row | Sequence | shrunken log2 fold change
76 | RRIRNRPPRLPRPRPRPDQHPRP | -0.34
77 | RRIRTRPPRLPRPRPRPEFKPRP | 0.0563
78 | RRIRERPPRLPRPRPRPEFPPRP | -0.00557
79 | RRIRARPPRLPRPRPRPMQVPRP | 0.277
80 | RRIRRRPPRLPRPRPRPGCNPRP | 0.327
81 | RRIRFRPPRLPRPRPRPGSMPRP | -0.255
82 | RRIRARPPRLPRPRPRPAGSPRP | 0.0823
83 | RRIRMRPPRLPRPRPRPSWEPRP | 0.302
84 | RRIRSRPPRLPRPRPRPLNVPRP | -0.0872
85 | RRIRQRPPRLPRPRPRPVQLPRP | 0.163
86 | RRIRLRPPRLPRPRPRPQQQPRP | 0.0294
87 | RRIRRRPPRLPRPRPRPTSCPRP | -0.108
88 | RRIRSRPPRLPRPRPRPSQWPRP | -0.176
89 | RRIRMRPPRLPRPRPRPCTMPRP | -0.218
90 | RRIRNRPPRLPRPRPRPMENPRP | -0.0164
91 | RRIRWRPPRLPRPRPRPMWPPRP | 0.214
92 | RRIRRRPPRLPRPRPRPWVDPRP | 0.0233
93 | RRIRIRPPRLPRPRPRPSVHPRP | -0.278
94 | RRIRTRPPRLPRPRPRPDVHPRP | 1.16
95 | RRIRPRPPRLPRPRPRPPRTPRP | 0.609
96 | RRIRLRPPRLPRPRPRPDDSPRP | 0.0276
97 | RRIRMRPPRLPRPRPRPTGKPRP | 0.562
98 | RRIRGRPPRLPRPRPRPLIHPRP | 0.324
99 | RRIRMRPPRLPRPRPRPLRCPRP | 1.61
100 | RRIRRRPPRLPRPRPRPIYDPRP | -0.0515

Row | Sequence | shrunken log2 fold change
101 | RRIRGRPPRLPRPRPRPGGKPRP | 0.555
102 | RRIRKRPPRLPRPRPRPNPGPRP | 0.155
103 | RRIRIRPPRLPRPRPRPIGMPRP | -0.187
104 | RRIRKRPPRLPRPRPRPVDGPRP | 0.344
105 | RRIRMRPPRLPRPRPRPTIAPRP | 0.26
106 | RRIRMRPPRLPRPRPRPQEGPRP | 0.0197
107 | RRIRIRPPRLPRPRPRPRCVPRP | -0.0162
108 | RRIRIRPPRLPRPRPRPFHSPRP | -0.16
109 | RRIRERPPRLPRPRPRPRKIPRP | 0.0442
110 | RRIRCRPPRLPRPRPRPLTKPRP | 0.291
111 | RRIRFRPPRLPRPRPRPMFLPRP | -0.712
112 | RRIRGRPPRLPRPRPRPTKQPRP | 0.169
113 | RRIRIRPPRLPRPRPRPSMKPRP | -0.56
114 | RRIRNRPPRLPRPRPRPGYQPRP | -0.0454
115 | RRIRIRPPRLPRPRPRPRCGPRP | 0.0437
116 | RRIRRRPPRLPRPRPRPVFNPRP | 0.056
117 | RRIRMRPPRLPRPRPRPKYSPRP | -0.326
118 | RRIRHRPPRLPRPRPRPLYLPRP | -0.4
119 | RRIRHRPPRLPRPRPRPTMPPRP | -0.00312
120 | RRIRFRPPRLPRPRPRPWDGPRP | 0.00772
121 | RRIRERPPRLPRPRPRPNTIPRP | -0.45
122 | RRIRERPPRLPRPRPRPYSDPRP | -0.308
123 | RRIRSRPPRLPRPRPRPWPWPRP | 0.0913
124 | RRIRMRPPRLPRPRPRPAQEPRP | 0.0616
125 | RRIRPRPPRLPRPRPRPDKIPRP | -0.184
